According to US7427404:

target: monoclonal anti-S1 antibody 1B7; experiment: competition RIA: 1B7 coated on plate, 125I-PT displaced by unlabelled toxin

Q: “PT-26I/129G (from UniProt P04978 28-226; P04979 29-227; P0A3R5 43-152; P04981 35-133)” was tested. Which Ka did it give?
A: 5.5e+07 M⁻¹

Q: Which Ka does the source give for “PT-13L/129G (from UniProt P04978 28-226; P04979 29-227; P0A3R5 43-152; P04981 35-133)” here?
A: 1.3e+08 M⁻¹

Q: “PT-129G (from UniProt P04978 28-226; P04979 29-227; P0A3R5 43-152; P04981 35-133)” was tested. Which Ka did it give?
A: 2.1e+08 M⁻¹
